This is an account of results in PMC4427203 (2015).

The target in this assay is Hsp90 600-709 (Saccharomyces cerevisiae (strain ATCC …, UniProt P02829)). Description: Kd quoted from earlier work (method not stated here).

B1: AIP 172-315 (protein)
chain: DEEKAKAVPLIHQEGNRLYREGHVKEAAAKYYDAIACLKNLQMKEQPGSPEWIQLDQQITPLLLNYCQCKLVVEEYYEVLDHCSSILNKYDDNVKAYFKRGKAHAAVWNAQEAQADFAKVLELDPALAPVVSRELRALEARIRQ
As to B1, binding was characterised by a dissociation constant (Kd) of 13.3 µM.

Broadly, the Kd is the constant that tells how readily two partners part at equilibrium. Low readings indicate tighter binding, high ones weaker binding.
